{"source": "paper PMC11145656", "about": "(Structure (London, England : 1993), 2023)", "binders": {"B1": {"name": "Ab246 IgG1 (antibody, V domains shown)", "VH": "QVQLQESGPGLVKPSETLSLTCSVSGDSIGTYYWSWIRQSPEKGLEWIGYIHHSGKTNYNPSLKSRVTMSVDTSKNQFSLKLTSVTAADTAVYYCARSPIGYCSSTKCYIDKPFDSWGQGTLVTVSS", "VL": "QAVLTQPSSLSASPGASASLTCTLRGGINVVNQRLYWYQQKPGSPPRFLLKYKSDSDNFLGSGVPSRFSGSKDASANAGILLISEVQSEDEADYYCMMWHSSAYVFGGGTKLTVL"}, "B2": {"name": "CR3022 IgG1 (antibody, V domains shown)", "VH": "EVQLVQSGTEVKKPGESLKISCKGSGYGFITYWIGWVRQMPGKGLEWMGIIYPGDSETRYSPSFQGQVTISADKSINTAYLQWSSLKASDTAIYYCAGGSGISTPMDVWGQGTTVTVSS", "VL": "not shown"}}, "experiment_in_all_cases": "BLI", "key": {"SARS-CoV-1 RBD": {"target": "SARS-CoV-1 RBD (SARS-CoV-1)"}, "[1]": {"target": "SARSr-CoV Rs4874-GCN S protein (Bat SARS-like coronavirus isolate Rs4874, strain)"}, "[2]": {"target": "SARSr-CoV Rs4231-T4 S protein (bat SARS-related CoV Rs4231)"}}}
{"binder": "B1", "values": [{"measurement": "binding result", "setting": "SARS-CoV-1 RBD", "result": "binds"}, {"measurement": "binding result", "setting": "[1]", "result": "binds"}]}
{"binder": "B2", "values": [{"measurement": "binding result", "setting": "[1]", "result": "binds"}, {"measurement": "binding result", "setting": "[2]", "result": "binds"}]}
